Reference: PMC7372559 (ACS Chemical Biology, 2020)
Residue numbers refer to the chain shown, from its start. Names and notes keep the numbering of the source.

B1: OphMA V404T, full-length, His-tagged (enzyme)
chain: METSTQTKAGSLTIVGTGIESIGQMTLQALSYIEAAAKVFYCVIDPATEAFILTKNKNCVDLYQYYDNGKSRLNTYTQMSELMVREVRKGLDVVGVFYGHPGVFVNPSHRALAIAKSEGYRARMLPGVSAEDCLFADLCIDPSNPGCLTYEASDFLIRDRPVSIHSHLVLFQVGCVGIADFNFTGFDNNKFGVLVDRLEQEYGAEHPVVHYIAAMMPHQDPVTDKYTVAQLREPEIAKRVGGVSTFYIPPKARKASNLDIIRRLELLPAGQVPDKKARIYPANQWEPDVPEVEPYRPSDQAAIAQLADHAPPEQYQPLATSKAMSDVMTKLALDPKALADYKADHRAFAQSVPDLTPQERAALELGDSWAIRCAMKNMPSSLLDAARESGEEASQNGFPWVIVTGVIGVIGSVMSTE
modifications: backbone N-methylation: 10-fold methylated species most abundant
B2: OphMA V406F, full-length, His-tagged (enzyme)
chain: B1 chain with T404V, V406F
modifications: backbone N-methylation: a tetramethylated species and, to a lesser extent, a trimethylated species
B3: OphMA I407T, full-length, His-tagged (enzyme)
chain: B1 chain with T404V, I407T
modifications: backbone N-methylation: 9-fold methylated species most abundant
B4: OphMA V406T, full-length, His-tagged (enzyme)
chain: B1 chain with T404V, V406T
modifications: backbone N-methylation: 3-fold methylated species most abundant
B5: OphMA V404F, full-length, His-tagged (enzyme)
chain: B1 chain with T404F
modifications: backbone N-methylation: mainly monomethylated
B6: OphMA V403F, full-length, His-tagged (enzyme)
chain: B1 chain with V403F, T404V
modifications: backbone N-methylation: comparably abundant monomethylated, dimethylated, trimethylated and tetramethylated species
B7: OphMA I407F, full-length, His-tagged (enzyme)
chain: B1 chain with T404V, I407F
modifications: backbone N-methylation: mainly a tetramethylated species with some pentamethylated species
B8: OphMAΔC6-V404F (crystallised with SAH) (enzyme)
chain: METSTQTKAGSLTIVGTGIESIGQMTLQALSYIEAAAKVFYCVIDPATEAFILTKNKNCVDLYQYYDNGKSRLNTYTQMSELMVREVRKGLDVVGVFYGHPGVFVNPSHRALAIAKSEGYRARMLPGVSAEDCLFADLCIDPSNPGCLTYEASDFLIRDRPVSIHSHLVLFQVGCVGIADFNFTGFDNNKFGVLVDRLEQEYGAEHPVVHYIAAMMPHQDPVTDKYTVAQLREPEIAKRVGGVSTFYIPPKARKASNLDIIRRLELLPAGQVPDKKARIYPANQWEPDVPEVEPYRPSDQAAIAQLADHAPPEQYQPLATSKAMSDVMTKLALDPKALADYKADHRAFAQSVPDLTPQERAALELGDSWAIRCAMKNMPSSLLDAARESGEEASQNGFPWVIVFGVIGVIG
modifications: backbone N-methyl at Val401 and Val403 (in the crystal structure)

Target: the molecule itself
Test: SEC; Superdex-200 Increase column, 25 mM Tris-HCl (pH 8.0), 10% (v/v) glycerol, 100 mM NaCl; retention time of mutants compared with wild type
For B1, the “stoichiometry N” value was 2. For B2, the “stoichiometry N” value was 2. With B3 the “stoichiometry N” value was 2. In the case of B4, the “stoichiometry N” value is reported as 2. For B5, the “stoichiometry N” value was 2. In the case of B6, the “stoichiometry N” value is reported as 2. For B7, the “stoichiometry N” value was 2.

Target: the molecule itself
Test: crystal structure; hanging drop, 16 °C; protein (30-50 mg/mL) preincubated with 3 mM SAM; 0.3-0.4 M KSCN, 1.8-2.4 M sodium malonate, 0.1 M bicine pH 8.5-9.3; SAH bound
B8: binds.
